Patent US20190023741A1

Columns and labels:
Aβ11-29 = biological target: T1, Aβ11-29
T1 sequence (peptide): EVHHQKLVFFAEDVGSNKG

## SKGQA [ANA-SA5]
Aβ1-20
Chain of Aβ1-20 (peptide, as listed by the source): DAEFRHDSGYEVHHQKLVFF
  hydrolysis activity: remaining HPLC peak of the substrate: 49.6%
Aβ11-29
  hydrolysis activity: remaining HPLC peak of the substrate: 72%
